Experimental data as given in paper doi:10.1101/2021.03.22.436508.

Legend:
[1] = target: Vibrio cholerae ParD2:ParE2 6:2 hetero-octameric complex (Vibrio cholerae biovar El Tor strain N16961); experiment: native MS
[2] = target: Vibrio cholerae ParE2 toxin with C-terminal histidine tag (Vibrio cholerae biovar El Tor strain N16961); experiment: SAXS
[3] = target: Vibrio cholerae ParD2 antitoxin (Vibrio cholerae biovar El Tor strain N16961); experiment: native MS
[4] = target: Vibrio cholerae ParE2 toxin with C-terminal histidine tag (Vibrio cholerae biovar El Tor strain N16961); experiment: native MS
[5] = target: Vibrio cholerae ParD2 antitoxin (Vibrio cholerae biovar El Tor strain N16961); experiment: crystal structure
[6] = target: Vibrio cholerae ParD2 antitoxin (Vibrio cholerae biovar El Tor strain N16961); experiment: crystal structure; remark: listed apart in the source
[7] = target: Vibrio cholerae ParE2 toxin with C-terminal histidine tag (Vibrio cholerae biovar El Tor strain N16961); experiment: crystal structure
[8] = target: Vibrio cholerae ParE2 toxin with C-terminal histidine tag (Vibrio cholerae biovar El Tor strain N16961); experiment: SEC-MALS

Row | Substance | stoichiometry N [1] | stoichiometry N (ParD2 per ParE2 (printed as 6:2)) [2] | stoichiometry N [3] | stoichiometry N (ParD2 per ParE2 (printed as 6:2)) [4] | stoichiometry N [5] | stoichiometry N [6] | stoichiometry N (ParD2 per ParE2 (printed as 6:2)) [7] | stoichiometry N (ParD2 per ParE2 (printed as 6:2)) [8]
1 | Vibrio cholerae ParD2:ParE2 6:2 hetero-octameric complex | 2 |  |  |  |  |  |  | 
2 | Vibrio cholerae ParD2 antitoxin (natural protein) |  | 3 | 2 | 3 | 6 | 2 | 3 | 3
